Source: patent US20210107981A1 (SUTRO BIOPHARMA, published 2021)

target: T1, Human PD-1 (ACROBiosystems, Inc., Catalog No. PD1-H5221) (human, UniProt Q15116 25-167); experiment: SPR (Biacore), scFv captured on anti-FLAG, PD-1 as analyte
T1 construct: Bought recombinant protein; also called huPD1-His; PD-1-his; not shown: His tag of the bought protein (huPD1-His)
Protocol: Monoclonal anti-FLAG M2 IgG (Sigma-Aldrich #F9291) was immobilized onto a CMS chip (GE Life Sciences) using amine coupling chemistry (from Amine Coupling Kit, GE Life Sciences). The immobilization steps were carried out at a flow rate of 25 μl/min in 1×HBS-EP+ buffer (GE Life Sciences; 10× Stock diluted before use). The sensor surfaces were activated for 7 min with a mixture of NHS (0.05 M) and EDC (0.2 M). The Anti-FLAG M2 IgG was injected over all 4 flow cells at a concentration of 25 μg/ml in 10 mM sodium acetate, pH 4.5, for 7 min. Ethanolamine (1 M, pH 8.5) was injected for 7 min to block any remaining activated groups.
Off-rate and kinetic binding experiments were performed at 25° C. using 1×HBS-EP+ buffer. Test and control antibodies were injected over the Anti-FLAG surface at concentrations of 5-10 μg/mL for 12 seconds at a flow rate of 10 μl/min on flow cells 2, 3 and 4, followed by a buffer wash for 30 seconds at the same flow rate. Kinetic characterization of antibody samples was carried out with a single concentration of antigen (for off-rate ranking) or a 1:2 dilution series of antigen (for kinetic characterization) and 1 injection of 0 nM antigen (i.e., buffer alone). After capturing ligand (anti-PD-1 antibody) on the anti-FLAG surface, the analyte (huPD1-His) was bound at 50, 25, 12.5, 6.25 and 0 nM for 180 seconds, followed by a 600 second dissociation phase at a flow rate of 50 μl/min. Between each ligand capture and analyte binding cycle, regeneration was carried out using 2 injections of 10 mM glycine pH 2.0 for 30 seconds at 30 μL/min, followed by a 30 second buffer wash step.
The data was fit with the Biacore T200 Evaluation software, using a 1:1 Langmuir binding model. KD (affinity, nM) was determined as a ratio of the kinetic rate constants calculated from the fits of the association and dissociation phases.

T1 sequence (Q15116 25-167 limits assumed): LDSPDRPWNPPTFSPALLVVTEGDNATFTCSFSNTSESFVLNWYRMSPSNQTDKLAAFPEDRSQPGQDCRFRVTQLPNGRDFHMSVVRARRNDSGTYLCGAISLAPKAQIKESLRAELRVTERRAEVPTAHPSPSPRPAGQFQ

| Kd | koff | kon | Binder |
| --- | --- | --- | --- |
| 2.58 nM | 0.000468 s⁻¹ | 182000 M⁻¹ s⁻¹ | h1E9-1 (VH3-21-Vκ1-9) scFv (scFv, Whole scFv chain with FlagHis tag) scFv: MEVQLVESGGGLVKPGGSLRLSCAASGFTFSTFGMSWVRQAPGKGLEWVSTISGGGSDTYYPDSVQGRFTISRDNAKNSLYLQMNSLRAEDTAVYYCARQGYDVYSWFAYWGQGTLVTVSSGGGGSGGGGSGGGGSDIQLTQSPSFLSASVGDRVTITCRASESVDNSGISFMSWYQQKPGKAPKLLIYTASNQGSGVPSRFSGSGSGTEFTLTISSLQPEDFATYYCQQSKEVPWTFGQGTKVEIKGSGDYKDDDDKGSGHHHHHH |
| 3.66 nM | 0.000679 s⁻¹ | 185000 M⁻¹ s⁻¹ | h1E9-4 (VH3-7-Vκ1-9) scFv (scFv, Whole scFv chain with FlagHis tag) scFv: MEVQLVESGGGLVQPGGSLRLSCAASGFTFSTFGMSWVRQAPGKGLEWVATISGGGSDTYYPDSVQGRFTISRDNAKNSLYLQMNSLRAEDTAVYYCARQGYDVYSWFAYWGQGTLVTVSSGGGGSGGGGSGGGGSDIQLTQSPSFLSASVGDRVTITCRASESVDNSGISFMSWYQQKPGKAPKLLIYTASNQGSGVPSRFSGSGSGTEFTLTISSLQPEDFATYYCQQSKEVPWTFGQGTKVEIKGSGDYKDDDDKGSGHHHHHH |
| 5.14 nM | 0.000417 s⁻¹ | 81200 M⁻¹ s⁻¹ | m4B10 scFv (scFv, Mouse single-chain antibody, whole chain with FlagHis tag) scFv: MEVKLVESGGGLVKPGGSLKLSCAASGFTFSTYGMSWVRQTPEKRLQWVATISGGGSNTYYSDSVKGRFTISRDNAKNNLYLQMSSLRSEDTALYYCARQRDSAWFASWGQGTLVTVSAGGGGSGGGGSGGGGSDIVLTQSPASLAVSLGQRATISCRASENVDDYGVSFMNWFQQKPGQPPKLLIYPASNQGSGVPARFSGSGSGTDFSLNIHPMEEDDTAMYFCQQSKEVPWTFGGGTKLEIKGSGDYKDDDDKGSGHHHHHH |
| 38.5 nM | 0.00182 s⁻¹ | 47400 M⁻¹ s⁻¹ | h1E9-2 (VH3-21-Vκ3-11) scFv (scFv, Whole scFv chain with FlagHis tag) scFv: MEVQLVESGGGLVKPGGSLRLSCAASGFTFSTFGMSWVRQAPGKGLEWVSTISGGGSDTYYPDSVQGRFTISRDNAKNSLYLQMNSLRAEDTAVYYCARQGYDVYSWFAYWGQGTLVTVSSGGGGSGGGGSGGGGSEIVLTQSPATLSLSPGERATLSCRASESVDNSGISFMSWYQQKPGQAPRLLIYTASNQGSGIPARFSGSGSGTDFTLTISSLEPEDFAVYYCQQSKEVPWTFGQGTKVEIKGSGDYKDDDDKGSGHHHHHH |
| 3.15 nM | 0.000628 s⁻¹ | 200000 M⁻¹ s⁻¹ | h1E9-5 (VH3-7-Vκ3-11) scFv (scFv, Whole scFv chain with FlagHis tag) scFv: MEVQLVESGGGLVQPGGSLRLSCAASGFTFSTFGMSWVRQAPGKGLEWVATISGGGSDTYYPDSVQGRFTISRDNAKNSLYLQMNSLRAEDTAVYYCARQGYDVYSWFAYWGQGTLVTVSSGGGGSGGGGSGGGGSEIVLTQSPATLSLSPGERATLSCRASESVDNSGISFMSWYQQKPGQAPRLLIYTASNQGSGIPARFSGSGSGTDFTLTISSLEPEDFAVYYCQQSKEVPWTFGQGTKVEIKGSGDYKDDDDKGSGHHHHHH |
| 2.47 nM | 0.00299 s⁻¹ | 1.21e+06 M⁻¹ s⁻¹ | h4B10-1 (VH3-15-Vκ3-11) scFv (scFv, Whole scFv chain with FlagHis tag) scFv: MEVQLVESGGGLVKPGGSLRLSCAASGFTFSTYGMSWVRQAPGKGLEWVATISGGGSNTYYSDSVKGRFTISRDDSKNTLYLQMNSLKTEDTAVYYCARQRDSAWFASWGQGTLVTVSSGGGGSGGGGSGGGGSEIVLTQSPATLSLSPGERATLSCRASENVDDYGVSFMNWYQQKPGQAPRLLIYPASNQGSGIPARFSGSGSGTDFTLTISSLEPEDFAVYYCQQSKEVPWTFGQGTKVEIKGSGDYKDDDDKGSGHHHHHH |
| 2.79 nM | 0.00324 s⁻¹ | 1.16e+06 M⁻¹ s⁻¹ | h4B10-2 (VH3-15-Vκ3-20) scFv (scFv, Whole scFv chain with FlagHis tag) scFv: MEVQLVESGGGLVKPGGSLRLSCAASGFTFSTYGMSWVRQAPGKGLEWVATISGGGSNTYYSDSVKGRFTISRDDSKNTLYLQMNSLKTEDTAVYYCARQRDSAWFASWGQGTLVTVSSGGGGSGGGGSGGGGSEIVLTQSPGTLSLSPGERATLSCRASENVDDYGVSFMNWYQQKPGQAPRLLIYPASNQGSGIPDRFSGSGSGTDFTLTISRLEPEDFAVYYCQQSKEVPWTFGQGTKVEIKGSGDYKDDDDKGSGHHHHHH |
